± gives the uncertainty stated by the source.
B1: Integrator complex subunit 12, residues 155 to 213; numbered along this chain, Q96CB8 (parent)
chain: AMEMGLACVVCRQMMVASGNQLVECQECHNLYHRDCHKPQVTDKEANDPRLVWYCARCT

Variants of: B1
Assay: abundance fitness (aPCA) (normalised: wild type 0, dead -1); higher = more abundant; growth selection in yeast, the domain comes from the species named
Settings: Homo sapiens

| Variant | abundance fitness |
| --- | --- |
| S18Q | 0.001 ± 0.062 |
| Q40T | 0.02 ± 0.063 |
| P49A | -0.046 ± 0.049 |
| R57G | 0.051 ± 0.035 |
| Q26S | -0.045 ± 0.039 |
| C8R | -0.841 ± 0.057 |
| K44M | -0.036 ± 0.05 |
| L31S | 0.046 ± 0.032 |
| T42D | -0.107 ± 0.071 |
| V52T | 0.034 ± 0.053 |
| E45M | -0.193 ± 0.068 |
| A46S | -0.075 ± 0.052 |
| S18L | -0.107 ± 0.035 |
| G5F | -0.28 ± 0.035 |
| W53C | -0.453 ± 0.092 |
| C36H | -0.516 ± 0.046 |
| E24K | -0.205 ± 0.083 |
| Q26L | -0.111 ± 0.049 |
| R12C | -0.069 ± 0.039 |
| C11N | -0.673 ± 0.04 |
| Y32M | -0.143 ± 0.055 |
| G5S | 0.007 ± 0.03 |
| W53A | -0.115 ± 0.064 |
| E45D | 0.005 ± 0.12 |

| Variant | abundance fitness |
| --- | --- |
| V23G | -0.528 ± 0.038 |
| N47M | -0.105 ± 0.056 |
| P39M | -0.248 ± 0.064 |
| H29Y | -0.182 ± 0.037 |
| C11F | -0.898 ± 0.046 |
| K44E | 0.042 ± 0.052 |
| M14Q | 0.082 ± 0.28 |
| A56V | -0.128 ± 0.036 |
| R12L | -0.101 ± 0.035 |
| M14R | 0.067 ± 0.046 |
| P49S | -0.007 ± 0.053 |
| A56C | -0.02 ± 0.075 |
| M14H | -0.02 ± 0.11 |
| A1I | -0.049 ± 0.18 |
| C55T | -1.16 ± 0.11 |
| E3A | -0.103 ± 0.04 |
| E45C | -0.111 ± 0.074 |
| G5C | -0.143 ± 0.034 |
| C58M | -1.09 ± 0.13 |
| C55I | -1.09 ± 0.28 |
| K38N | -0.209 ± 0.085 |
| L22C | -0.03 ± 0.035 |
| N30E | -0.103 ± 0.072 |
| D43S | -0.074 ± 0.038 |

| Variant | abundance fitness |
| --- | --- |
| E24A | -0.123 ± 0.049 |
| A7Q | -0.077 ± 0.058 |
| E27D | -0.049 ± 0.036 |
| Y32L | -0.152 ± 0.038 |
| N30S | -0.071 ± 0.043 |
| A56W | -0.134 ± 0.05 |
| V16Q | -0.013 ± 0.072 |
| P39F | -0.308 ± 0.11 |
| W53H | -0.266 ± 0.097 |
| M4S | 0.045 ± 0.032 |
| M15K | 0.094 ± 0.064 |
| C25V | -0.819 ± 0.082 |
| Q21M | 0.079 ± 0.085 |
| T59A | 0.016 ± 0.074 |
| R50D | -0.017 ± 0.091 |
| G19T | -0.026 ± 0.068 |
| K38S | 0.016 ± 0.041 |
| C25E | -0.824 ± 0.14 |
| A46W | -0.063 ± 0.052 |
| C36K | -0.79 ± 0.078 |
| M14D | 0.101 ± 0.037 |
| A7N | 0.039 ± 0.036 |
| E3R | -0.304 ± 0.037 |
| R12T | -0.049 ± 0.041 |

| Variant | abundance fitness |
| --- | --- |
| C55R | -0.774 ± 0.05 |
| V9A | -0.046 ± 0.044 |
| V16P | -0.002 ± 0.05 |
| H29P | -0.612 ± 0.057 |
| L51E | 0.056 ± 0.06 |
| N30G | 0.03 ± 0.039 |
| C8S | -0.757 ± 0.039 |
| C55W | -1.11 ± 0.1 |
| L22Q | -0.297 ± 0.12 |
| Q40E | -0.04 ± 0.049 |
| T59G | -0.13 ± 0.082 |
| R50K | 0.025 ± 0.073 |
| A1S | 0.046 ± 0.071 |
| G19Y | -0.167 ± 0.063 |
| D35W | -0.089 ± 0.044 |
| C55P | -0.891 ± 0.11 |
| C36T | -0.588 ± 0.046 |
| A17I | -0.098 ± 0.038 |
| V9T | -0.02 ± 0.038 |
| Q40G | 0.001 ± 0.037 |
| G5P | -0.053 ± 0.051 |
| E45K | 0.073 ± 0.075 |
| V16A | 0.042 ± 0.036 |
| R50E | 0.02 ± 0.056 |

| Variant | abundance fitness |
| --- | --- |
| A7M | -0.069 ± 0.054 |
| E27S | -0.007 ± 0.03 |
| V9L | -0.202 ± 0.034 |
| C11M | -1.07 ± 0.14 |
| K44V | -0.038 ± 0.045 |
| D48I | -0.187 ± 0.14 |
| C25M | -0.792 ± 0.17 |
| T59H | 0.035 ± 0.077 |
| G19H | -0.072 ± 0.047 |
| A56M | -0.02 ± 0.055 |
| Q21S | 0.019 ± 0.035 |
| L6Q | 0.014 ± 0.064 |
| Q26H | -0.012 ± 0.077 |
| N30L | -0.002 ± 0.047 |
| C36V | -0.73 ± 0.037 |
| N47Q | -0.092 ± 0.053 |
| D35G | 0.013 ± 0.033 |
| N20G | -0.05 ± 0.032 |
| P49I | 0.002 ± 0.14 |
| E3L | -0.321 ± 0.04 |
| G19M | -0.206 ± 0.078 |
| K44N | 0.119 ± 0.12 |
| H33P | -0.72 ± 0.051 |
| C8K | -0.874 ± 0.089 |

| Variant | abundance fitness |
| --- | --- |
| H37E | -0.223 ± 0.08 |
| M2A | -0.142 ± 0.043 |
| N47C | -0.013 ± 0.095 |
| N20A | -0.03 ± 0.035 |
| Q13H | -0.043 ± 0.039 |
| E27K | 0.087 ± 0.063 |
| V23C | -0.103 ± 0.032 |
| L31K | 0.103 ± 0.055 |
| G5N | 0.043 ± 0.037 |
| M4L | -0.027 ± 0.036 |
| Y54L | 0.026 ± 0.046 |
| W53V | -0.398 ± 0.064 |
| Q26D | -0.147 ± 0.068 |
| C55Q | -1.01 ± 0.13 |
| M4C | -0.026 ± 0.036 |
| P39H | -0.347 ± 0.12 |
| K38Q | -0.015 ± 0.054 |
| T42Y | -0.165 ± 0.1 |
| D43E | -0.037 ± 0.043 |
| M15T | 0.04 ± 0.039 |
| Q40N | 0.051 ± 0.075 |
| L22P | -0.115 ± 0.07 |
| H33R | -0.638 ± 0.043 |
| C36I | -0.691 ± 0.039 |

| Variant | abundance fitness |
| --- | --- |
| Y54A | -0.093 ± 0.047 |
| L6G | -0.034 ± 0.033 |
| C36G | -0.606 ± 0.033 |
| Q13N | -0.024 ± 0.036 |
| A17V | -0.075 ± 0.035 |
| P49C | -0.318 ± 0.077 |
| S18H | 0.014 ± 0.046 |
| M15L | -0.013 ± 0.036 |
| T59L | -0.249 ± 0.068 |
| A46D | -0.092 ± 0.072 |
| R34E | -0.016 ± 0.12 |
| L31I | 0.01 ± 0.036 |
| V16R | 0.019 ± 0.035 |
| E24Q | -0.088 ± 0.086 |
| Q13L | -0.088 ± 0.033 |
| M2Q | -0.058 ± 0.12 |
| A17P | 0.005 ± 0.061 |
| C8I | -1.04 ± 0.063 |
| V9G | -0.216 ± 0.048 |
| R50V | -0.177 ± 0.067 |
| A17W | -0.388 ± 0.08 |
| C58Y | -1.08 ± 0.12 |
| E45R | -0.207 ± 0.042 |
